# Measured values taken from paper PMC11021269, “HspBP1 in Complex with the Peptide of the Innate Immunity Protein Tag7 is Able to Lyse Tumor Cells Carrying TNFR1 Receptor” (Doklady. Biochemistry and Biophysics, 2024).
# T1: HspBP1 (Homo sapiens, UniProt Q9NZL4)
# T1 construct: made in house
# T1 sequence (Q9NZL4 1-359): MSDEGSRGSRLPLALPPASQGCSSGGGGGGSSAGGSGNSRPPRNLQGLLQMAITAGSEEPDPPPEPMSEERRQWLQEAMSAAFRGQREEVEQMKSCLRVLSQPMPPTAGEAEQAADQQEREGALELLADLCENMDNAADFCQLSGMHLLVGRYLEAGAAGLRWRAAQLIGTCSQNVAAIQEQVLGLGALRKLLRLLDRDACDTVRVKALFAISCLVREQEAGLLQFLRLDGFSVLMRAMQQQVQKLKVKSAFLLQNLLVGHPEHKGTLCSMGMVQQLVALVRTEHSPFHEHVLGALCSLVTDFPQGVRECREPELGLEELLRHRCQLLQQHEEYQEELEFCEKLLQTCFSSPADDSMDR
# Legend:
# [1] = test system: L929 cells (mouse fibroblasts) bearing the TNFR1 receptor; test: Cytotoxicity on L929 cells (Cytotox kit, Promega); format: cell-based
# Protocol: L929 cells (mouse fibroblasts) were cultured in DMEM medium (PanEco, RA) supplemented with 10% fetal bovine serum (HyClone, United States). The culture was obtained from the bank of cell lines of the Blokhin Russian Cancer Research Center of the Russian Academy of Medical Sciences. To measure cytotoxicity, proteins and protein complexes were added to the L929 culture at a concentration of 1 nM, unless a different concentration was specified, and incubated for 3 or 20 h. Cytotoxicity was measured using a Cytotox kit (Promega, United States) according to the manufacturer’s method. To inhibit cytotoxicity, blocking antibodies to TNFR1 were used at a concentration of 10 μg/mL (Invitrogen, United States). Data from 5 different experiments are used.
# [2] = target: Hsp70; conditions: shown previously; read-out: dissociation constant for Hsp70; cited from earlier work
# Protocol: For 17.1–HspBP1, equal to 3.91 nM is also close to these values. […] It can be assumed that the lack of cytotoxic activity inTag7–HspBP1 is associated with its dissociation upon interaction with cells. Thus, a correlation between the affinity of protei ...
# [3] = target: T1, HspBP1; test: Microscale thermophoresis, binding to Alexa Fluor 633-labeled HspBP1; conditions: labeled HspBP1 200 nM, 20 min incubation, room temperature, 16 concentrations, triplicate; read-out: dissociation constant of the complex with HspBP1, thermophoresis
# Protocol: Purified HspBP1 was fluorescently labeled using Alexa Fluor 633 (Eugene, OR, United States) according to the manufacturer’s instructions. HspBP1 (200 nM) was incubated for 20 min with each compound in the dark at room temperature at 16 different concentrations obtained by serial dilution starting with the highest soluble concentration. Samples were loaded into glass capillaries (Monolith NT Capillaries) and analyzed by thermophoresis using a Monolith NT 115 nanotemperature instrument (IR laser power 10%). The signal quality was monitored with a NanoTemper Monolith instrument to detect possible ligand autofluorescence, precipitation, aggregation, or ligand-induced changes in photobleaching rate. Experiments were performed in triplicate and processed using affinity analysis software (MO Control v.1.6.1, Nano-Temper).
molecule,measurement,setting,value
Tag7–HspBP1 complex: complex of the Tag7 protein with the HspBP1 protein,cytotoxic activity (time not given),[1],does not have cytotoxic activity
same,cytotoxic activity after 3 h of incubation,"[1]; complexes at 1 nM, 3 h (apoptosis), 5 experiments",did not have cytotoxic activity
same,cytotoxic activity after 20 h of incubation,"[1]; complexes at 1 nM, 20 h (necroptosis), 5 experiments",did not have cytotoxic activity
"HspBP1: recombinant co-chaperone that regulates the ATPase activity of Hsp70 (protein, UniProt Q9NZL4 1-359, looked up) Hsp70-binding protein 1: MSDEGSRGSRLPLALPPASQGCSSGGGGGGSSAGGSGNSRPPRNLQGLLQMAITAGSEEPDPPPEPMSEERRQWLQEAMSAAFRGQREEVEQMKSCLRVLSQPMPPTAGEAEQAADQQEREGALELLADLCENMDNAADFCQLSGMHLLVGRYLEAGAAGLRWRAAQLIGTCSQNVAAIQEQVLGLGALRKLLRLLDRDACDTVRVKALFAISCLVREQEAGLLQFLRLDGFSVLMRAMQQQVQKLKVKSAFLLQNLLVGHPEHKGTLCSMGMVQQLVALVRTEHSPFHEHVLGALCSLVTDFPQGVRECREPELGLEELLRHRCQLLQQHEEYQEELEFCEKLLQTCFSSPADDSMDR",effect on the cytotoxic activity of the Tag7–Hsp70 complex,"[1]; increasing concentration of HspBP1, Fig. 1a",inhibits the cytotoxic activity of the Tag7–Hsp70 complex in a dose-dependent manner
"Tag7: innate immunity protein Tag7, a ligand for the TNFR1 receptor (protein, UniProt O75594 1-196, looked up, full-length, innate immunity protein Tag7, a ligand for the TNFR1 receptor) MSRRSMLLAWALPSLLRLGAAQETEDPACCSPIVPRNEWKALASECAQHLSLPLRYVVVSHTAGSSCNTPASCQQQARNVQHYHMKTLGWCDVGYNFLIGEDGLVYEGRGWNFTGAHSGHLWNPMSIGISFMGNYMDRVPTPQAIRAAQGLLACGVAQGALRSNYVLKGHRDVQRTLSPGNQLYHLIQNWPHYRSP",Kd,[2],1.73 nM
same,Kd,[3],328 nM
